From the supplement of paper PMC10126150
± gives the standard deviation of the averaged measurements.

System: ATP
Assay: switch fluorescence ratio, 500 uM ATP over buffer (Cy3 cluster intensity, sum of 5 cycles each) (fold (ratio)); higher = stronger signal-on switching upon ATP binding; sequences stand for … in TCGTCGGCAGCGTCAGATGTGTATAAGAGACAGTTTTTTTTTTTTTTTTTTTTTTTTT…TC
Conditions: aptamer strand: ATP DNA aptamer (quencher-CACCTGGGGGAGTATTGCGGAGGAAGG + anchor), 100 nM annealed; ATP concentration: 500 uM
In short: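 Five buffer/ATP imaging cycles were run on Cy3-labelled switching-strand clusters on a modified Illumina MiSeq flow-cell, with NaOH stripping and re-annealing between cycles. In each cycle, clusters annealed to 100 nM quencher-labelled ATP aptamer were imaged in selection buffer, then after 15 min with 500 uM ATP at 22 °C. Per cluster, the fluorescence ratio is summed target-cycle over summed buffer-cycle Cy3 intensity, averaged per switch-domain sequence. Only clusters within 100-1000 RFU were kept.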
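Note: ATP exposure 15 min at 22 °C before imaging.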

TATCACATTG
switch fluorescence ratio: 0.992 ± 0.039

TATCAGGTAG
switch fluorescence ratio: 1.001 ± 0.0052

TATCATATTA
switch fluorescence ratio: 1 ± 0.037

TATCATGCGC
switch fluorescence ratio: 1.02 ± 0.054

TATCATGGGA
switch fluorescence ratio: 0.9982 ± 0.0087

TATCATGGTG
switch fluorescence ratio: 1.05 ± 0.058

TATCCAGGGA
switch fluorescence ratio: 1.026 ± 0.0046

TATCCCAGGC
switch fluorescence ratio: 1.31 ± 0.032

TATCCTTTTT
switch fluorescence ratio: 1.03 ± 0.057

TATCGAGGGT
switch fluorescence ratio: 0.9698 ± 0.0094

TATCGAGTCG
switch fluorescence ratio: 0.997 ± 0.034

TATCGCCCTC
switch fluorescence ratio: 1.07 ± 0.011

TATCGGAGAG
switch fluorescence ratio: 0.9835 ± 0.0016

TATCGGCTGT
switch fluorescence ratio: 1.01 ± 0.011

TATCGGGGTA
switch fluorescence ratio: 1.002 ± 0.0047

TATCGGTAGC
switch fluorescence ratio: 1.017 ± 0.0025

TATCGTAGAG
switch fluorescence ratio: 1.011 ± 0.0072

TATCGTGGAG
switch fluorescence ratio: 1.04 ± 0.042

TATCGTTTTT
switch fluorescence ratio: 0.987 ± 0.046

TATCTAGGTC
switch fluorescence ratio: 0.954 ± 0.086

TATCTGGGCA
switch fluorescence ratio: 1.06 ± 0.087

TATCTGGTAG
switch fluorescence ratio: 1 ± 0.025

TATCTTACGA
switch fluorescence ratio: 1.02 ± 0.041

TATCTTTCGG
switch fluorescence ratio: 0.997 ± 0.021

TATGAAAAGT
switch fluorescence ratio: 0.9926 ± 0.0072

TATGAACTGC
switch fluorescence ratio: 1.04 ± 0.041

TATGAGAAGC
switch fluorescence ratio: 1 ± 0.017

TATGAGCGCT
switch fluorescence ratio: 1.03 ± 0.054

TATGAGGCCA
switch fluorescence ratio: 1.04 ± 0.023

TATGAGGGGG
switch fluorescence ratio: 1.02 ± 0.04

TATGAGGGTG
switch fluorescence ratio: 1.08 ± 0.13

TATGAGGGTT
switch fluorescence ratio: 1 ± 0.038

TATGAGTTGC
switch fluorescence ratio: 1.03 ± 0.011

TATGATAACT
switch fluorescence ratio: 1.031 ± 0.0077

TATGATCTAG
switch fluorescence ratio: 0.995 ± 0.014

TATGATGTAA
switch fluorescence ratio: 1.02 ± 0.049

TATGATTCAG
switch fluorescence ratio: 0.98 ± 0.012

TATGATTTAT
switch fluorescence ratio: 0.995 ± 0.062

TATGCAATCA
switch fluorescence ratio: 1.03 ± 0.02

TATGCATGGA
switch fluorescence ratio: 1.009 ± 0.0082

TATGCCCAGA
switch fluorescence ratio: 1.03 ± 0.041

TATGCCTCTT
switch fluorescence ratio: 1.01 ± 0.031

TATGCGCAGA
switch fluorescence ratio: 1.01 ± 0.03

TATGCTGGAT
switch fluorescence ratio: 1.02 ± 0.059

TATGGAGATA
switch fluorescence ratio: 0.999 ± 0.013

TATGGAGGTT
switch fluorescence ratio: 0.969 ± 0.0074

TATGGCATCG
switch fluorescence ratio: 0.99 ± 0.014

TATGGCTCTA
switch fluorescence ratio: 0.9731 ± 0.00019

TATGGGACTC
switch fluorescence ratio: 1.032 ± 0.0025

TATGGGCCGG
switch fluorescence ratio: 1.07 ± 0.018

TATGGGGGGC
switch fluorescence ratio: 0.983 ± 0.047

TATGGGGGTA
switch fluorescence ratio: 1.01 ± 0.029

TATGGGGGTC
switch fluorescence ratio: 1.02 ± 0.015

TATGGTAGC
switch fluorescence ratio: 0.989 ± 0.048

TATGGTCTTA
switch fluorescence ratio: 0.987 ± 0.021

TATGGTCTTT
switch fluorescence ratio: 0.979 ± 0.019

TATGGTGAAG
switch fluorescence ratio: 1 ± 0.024

TATGGTGCCT
switch fluorescence ratio: 1.02 ± 0.082

TATGGTGGGG
switch fluorescence ratio: 0.986 ± 0.034

TATGGTGTAG
switch fluorescence ratio: 1 ± 0.043

TATGGTTATG
switch fluorescence ratio: 1.008 ± 0.0072

TATGTACTAT
switch fluorescence ratio: 1.08 ± 0.029

TATGTAGAAG
switch fluorescence ratio: 1 ± 0.027

TATGTAGACG
switch fluorescence ratio: 1.04 ± 0.064

TATGTAGGAG
switch fluorescence ratio: 0.994 ± 0.018

TATGTCATAC
switch fluorescence ratio: 1.14 ± 0.058

TATGTCTCTC
switch fluorescence ratio: 0.97458 ± 0.00069

TATGTGAGGC
switch fluorescence ratio: 0.993 ± 0.011

TATGTGGCAC
switch fluorescence ratio: 1.08 ± 0.061

TATGTGGGAT
switch fluorescence ratio: 0.9734 ± 0.0016

TATGTGTGTG
switch fluorescence ratio: 0.9889 ± 0.0089

TATGTGTTGC
switch fluorescence ratio: 1.03 ± 0.023

TATGTTATAT
switch fluorescence ratio: 0.991 ± 0.029

TATGTTGTGT
switch fluorescence ratio: 0.96 ± 0.037

TATGTTTAAT
switch fluorescence ratio: 0.994 ± 0.041

TATGTTTGCC
switch fluorescence ratio: 1.02 ± 0.047

TATGTTTT
switch fluorescence ratio: 1.02 ± 0.016

TATGTTTTCT
switch fluorescence ratio: 1.01 ± 0.039

TATTAACGTA
switch fluorescence ratio: 1.08 ± 0.022

TATTAAGGGA
switch fluorescence ratio: 0.995 ± 0.012

TATTAATTGG
switch fluorescence ratio: 0.9932 ± 0.0037

TATTACTGAG
switch fluorescence ratio: 1.07 ± 0.036

TATTACTTTG
switch fluorescence ratio: 1.01 ± 0.024

TATTAGAATA
switch fluorescence ratio: 0.9814 ± 0.006

TATTAGACTA
switch fluorescence ratio: 1.02 ± 0.022

TATTAGGGGC
switch fluorescence ratio: 1.04 ± 0.036

TATTAGTAAT
switch fluorescence ratio: 1.002 ± 0.0032

TATTAGTAGC
switch fluorescence ratio: 0.9995 ± 0.0013

TATTAGTTAA
switch fluorescence ratio: 0.992 ± 0.019

TATTATGCGA
switch fluorescence ratio: 1.04 ± 0.022

TATTATGTCA
switch fluorescence ratio: 1.01 ± 0.043

TATTATTTTC
switch fluorescence ratio: 1.03 ± 0.046

TATTCAGGGA
switch fluorescence ratio: 1.02 ± 0.02

TATTCAGTCG
switch fluorescence ratio: 0.9927 ± 0.0051

TATTCATCGT
switch fluorescence ratio: 0.9932 ± 0.0075

TATTCTAATT
switch fluorescence ratio: 1.004 ± 0.006

TATTCTCGAC
switch fluorescence ratio: 1.01 ± 0.013

TATTCTGCTA
switch fluorescence ratio: 1.02 ± 0.024

TATTCTTTTT
switch fluorescence ratio: 0.968 ± 0.04

TATTGAAATT
switch fluorescence ratio: 1.05 ± 0.022

TATTGACAA
switch fluorescence ratio: 1.02 ± 0.019

TATTGAGAAG
switch fluorescence ratio: 0.987 ± 0.025

TATTGAGAGT
switch fluorescence ratio: 0.991 ± 0.032

TATTGAGATA
switch fluorescence ratio: 1.01 ± 0.04

TATTGAGGAG
switch fluorescence ratio: 1.01 ± 0.011

TATTGATATT
switch fluorescence ratio: 1.06 ± 0.14

TATTGATTTA
switch fluorescence ratio: 1.02 ± 0.042

TATTGCCGGG
switch fluorescence ratio: 0.985 ± 0.036

TATTGCGGGG
switch fluorescence ratio: 1.2 ± 0.42

TATTGGAGAT
switch fluorescence ratio: 1 ± 0.021

TATTGGCTAA
switch fluorescence ratio: 0.987 ± 0.034

TATTGGGGAG
switch fluorescence ratio: 1.13 ± 0.29

TATTGGGGAT
switch fluorescence ratio: 1.06 ± 0.043

TATTGGGGGT
switch fluorescence ratio: 1.01 ± 0.044

TATTGGGTCA
switch fluorescence ratio: 0.996 ± 0.03

TATTGGTTAA
switch fluorescence ratio: 0.974 ± 0.021

TATTGGTTCG
switch fluorescence ratio: 1.03 ± 0.027

TATTGTAACC
switch fluorescence ratio: 1.03 ± 0.016

TATTGTAATG
switch fluorescence ratio: 1.04 ± 0.0081

TATTGTGTGT
switch fluorescence ratio: 0.987 ± 0.022

TATTGTTGAC
switch fluorescence ratio: 1.037 ± 0.01

TATTTAACTT
switch fluorescence ratio: 1.014 ± 0.005

TATTTAAGTT
switch fluorescence ratio: 1.03 ± 0.013

TATTTACGGG
switch fluorescence ratio: 0.9931 ± 0.0065

TATTTAGTAT
switch fluorescence ratio: 0.99 ± 0.045

TATTTAGTCT
switch fluorescence ratio: 1 ± 0.026

TATTTATGTT
switch fluorescence ratio: 0.995 ± 0.031

TATTTCATAT
switch fluorescence ratio: 1 ± 0.013

TATTTCGGGA
switch fluorescence ratio: 0.994 ± 0.026

TATTTCGGTT
switch fluorescence ratio: 1.002 ± 0.0096

TATTTCTGTG
switch fluorescence ratio: 1.02 ± 0.034

TATTTGAGA
switch fluorescence ratio: 1.01 ± 0.019

TATTTGATGG
switch fluorescence ratio: 0.992 ± 0.021

TATTTGGGGG
switch fluorescence ratio: 1.01 ± 0.029

TATTTGGGTA
switch fluorescence ratio: 0.987 ± 0.026

TATTTTAGAA
switch fluorescence ratio: 0.996 ± 0.016

TATTTTAGGG
switch fluorescence ratio: 0.985 ± 0.029

TATTTTCATT
switch fluorescence ratio: 0.999 ± 0.015

TATTTTCGGA
switch fluorescence ratio: 0.97 ± 0.039

TATTTTGAGT
switch fluorescence ratio: 0.989 ± 0.012

TATTTTGGAG
switch fluorescence ratio: 0.985 ± 0.035

TATTTTGGCC
switch fluorescence ratio: 1.02 ± 0.04

TATTTTGTCT
switch fluorescence ratio: 1.1 ± 0.13

TATTTTGTGT
switch fluorescence ratio: 0.998 ± 0.036

TATTTTTCCG
switch fluorescence ratio: 1.03 ± 0.012

TATTTTTGTG
switch fluorescence ratio: 0.985 ± 0.011

TATTTTTTAT
switch fluorescence ratio: 1.022 ± 0.0017

TATTTTTTTA
switch fluorescence ratio: 0.997 ± 0.039

TCAAAACGGC
switch fluorescence ratio: 1.07 ± 0.15

TCAAAAGGGG
switch fluorescence ratio: 1.06 ± 0.092

TCAAACAGTG
switch fluorescence ratio: 1.02 ± 0.039

TCAAAGATAA
switch fluorescence ratio: 0.98902 ± 2.8e-05

TCAAAGCCCT
switch fluorescence ratio: 1.03 ± 0.03

TCAAATCGTT
switch fluorescence ratio: 0.992 ± 0.0074

TCAAATGGCG
switch fluorescence ratio: 0.923 ± 0.023

TCAAATTAGA
switch fluorescence ratio: 0.966 ± 0.026

TCAACAGGA
switch fluorescence ratio: 1.01 ± 0.033

TCAACCTACG
switch fluorescence ratio: 1.36 ± 0.17

TCAACGGGTA
switch fluorescence ratio: 1.01 ± 0.021

TCAACGTCAG
switch fluorescence ratio: 0.9872 ± 0.0048

TCAAGAGATG
switch fluorescence ratio: 1 ± 0.015

TCAAGATTAT
switch fluorescence ratio: 0.994 ± 0.027

TCAAGCCGAG
switch fluorescence ratio: 1.08 ± 0.062

TCAAGGAGGT
switch fluorescence ratio: 1.01 ± 0.13

TCAAGGCCTG
switch fluorescence ratio: 1.01 ± 0.042

TCAAGGGTCC
switch fluorescence ratio: 0.996 ± 0.07

TCAAGTAAAG
switch fluorescence ratio: 1.14 ± 0.23

TCAAGTGTTT
switch fluorescence ratio: 0.993 ± 0.015

TCAAGTTTTC
switch fluorescence ratio: 0.987 ± 0.034

TCAATCAGGT
switch fluorescence ratio: 1.032 ± 0.0019

TCAATCGACA
switch fluorescence ratio: 1 ± 0.041

TCAATCGTTG
switch fluorescence ratio: 1.05 ± 0.016

TCAATCTAAC
switch fluorescence ratio: 1.35 ± 0.55

TCAATGGGGC
switch fluorescence ratio: 0.979 ± 0.044

TCAATGGGTA
switch fluorescence ratio: 0.991 ± 0.021

TCAATGGTAA
switch fluorescence ratio: 0.97 ± 0.096

TCAATGGTTA
switch fluorescence ratio: 0.978 ± 0.014

TCAATGTGCG
switch fluorescence ratio: 1.013 ± 0.01

TCAATTCTGA
switch fluorescence ratio: 1.002 ± 0.0075

TCACAAATAA
switch fluorescence ratio: 0.993 ± 0.043

TCACAAATGA
switch fluorescence ratio: 1.013 ± 0.0077

TCACAAGTTG
switch fluorescence ratio: 1.01 ± 0.019

TCACAGTTTT
switch fluorescence ratio: 0.983 ± 0.02

TCACATGTGG
switch fluorescence ratio: 1.03 ± 0.044

TCACATTAAG
switch fluorescence ratio: 1.01 ± 0.037

TCACATTTGG
switch fluorescence ratio: 1.03 ± 0.045

TCACATTTTA
switch fluorescence ratio: 0.995 ± 0.04

TCACGCCTTT
switch fluorescence ratio: 1.05 ± 0.033

TCACGGGCAG
switch fluorescence ratio: 0.978 ± 0.012

TCACGGGGTT
switch fluorescence ratio: 1.01 ± 0.039

TCACGGTGTC
switch fluorescence ratio: 1.11 ± 0.026

TCACGTGTCA
switch fluorescence ratio: 0.9999 ± 0.0089

TCACGTTAAT
switch fluorescence ratio: 1.2 ± 0.058

TCACGTTGGG
switch fluorescence ratio: 0.9989 ± 0.0094

TCACTCATTG
switch fluorescence ratio: 0.9975 ± 0.0014

TCACTGAGCT
switch fluorescence ratio: 1.05 ± 0.034

TCACTGGGGA
switch fluorescence ratio: 0.995 ± 0.03

TCACTTAATA
switch fluorescence ratio: 0.994 ± 0.014

TCAGAATGGG
switch fluorescence ratio: 0.9833 ± 0.0047

TCAGACAGTT
switch fluorescence ratio: 0.987 ± 0.0042
